No end group written: not given here.
Tests used:
Assay in all cases: Kinase Profiling Assay
Type in all cases: biochemical
Details in all cases: peptide 100 μM
[1] = molecular target: PAK5(h) (Homo sapiens, UniProt Q9P286)
Method in brief: (§1)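 Specificity of MK2 inhibitory peptides is assessed against a panel of 266 human kinases. Kinase transfers a radiolabeled phosphate from ATP onto a positively charged substrate, which is trapped on a negatively charged filter and quantified by scintillation counting against full-activity control; duplicate determinations.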

[2] = molecular target: T1, Txk(h) (Homo sapiens, UniProt P42681)
T1 sequence (P42681 1-527): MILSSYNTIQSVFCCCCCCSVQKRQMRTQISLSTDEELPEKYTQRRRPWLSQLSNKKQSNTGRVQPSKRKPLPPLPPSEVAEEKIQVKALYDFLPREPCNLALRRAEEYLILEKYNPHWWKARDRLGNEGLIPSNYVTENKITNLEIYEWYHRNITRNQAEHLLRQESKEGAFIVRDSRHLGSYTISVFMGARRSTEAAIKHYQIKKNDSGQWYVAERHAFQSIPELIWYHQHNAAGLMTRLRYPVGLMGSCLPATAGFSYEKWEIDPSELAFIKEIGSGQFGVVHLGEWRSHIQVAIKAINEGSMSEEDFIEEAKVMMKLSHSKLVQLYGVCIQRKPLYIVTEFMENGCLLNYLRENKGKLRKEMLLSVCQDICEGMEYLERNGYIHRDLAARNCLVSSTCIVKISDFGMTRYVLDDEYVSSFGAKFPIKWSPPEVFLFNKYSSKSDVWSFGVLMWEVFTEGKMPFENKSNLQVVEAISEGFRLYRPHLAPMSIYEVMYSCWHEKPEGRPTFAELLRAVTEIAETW
Method in brief: as §1

[3] = molecular target: T2, Haspin(h) (Homo sapiens, UniProt Q8TF76)
T2 construct: purchased Millipore
T2 sequence (Q8TF76 1-798): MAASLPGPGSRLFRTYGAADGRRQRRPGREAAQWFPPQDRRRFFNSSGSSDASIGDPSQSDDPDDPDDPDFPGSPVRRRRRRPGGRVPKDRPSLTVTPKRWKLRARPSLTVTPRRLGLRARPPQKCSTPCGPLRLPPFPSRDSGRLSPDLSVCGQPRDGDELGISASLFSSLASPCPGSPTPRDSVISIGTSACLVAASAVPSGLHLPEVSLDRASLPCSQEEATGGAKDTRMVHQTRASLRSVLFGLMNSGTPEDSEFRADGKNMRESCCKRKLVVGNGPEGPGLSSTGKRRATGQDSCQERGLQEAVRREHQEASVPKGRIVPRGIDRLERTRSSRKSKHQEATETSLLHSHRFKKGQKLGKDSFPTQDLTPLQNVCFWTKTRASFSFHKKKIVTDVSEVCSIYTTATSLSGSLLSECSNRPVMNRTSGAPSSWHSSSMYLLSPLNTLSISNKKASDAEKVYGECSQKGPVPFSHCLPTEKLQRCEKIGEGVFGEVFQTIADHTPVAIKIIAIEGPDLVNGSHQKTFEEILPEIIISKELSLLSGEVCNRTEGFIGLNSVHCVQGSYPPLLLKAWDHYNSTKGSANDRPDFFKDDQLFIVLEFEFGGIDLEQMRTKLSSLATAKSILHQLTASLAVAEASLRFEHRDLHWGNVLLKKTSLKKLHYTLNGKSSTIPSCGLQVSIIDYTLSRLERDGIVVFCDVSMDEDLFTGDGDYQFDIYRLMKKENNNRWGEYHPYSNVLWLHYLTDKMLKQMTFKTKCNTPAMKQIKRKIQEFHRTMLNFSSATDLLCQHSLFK
Method in brief: as §1

[4] = molecular target: cKit(D816H)(h) (Homo sapiens, UniProt P10721, D816H)
Method in brief: as §1

[5] = molecular target: T3, MST2(h) (Homo sapiens, UniProt Q13188)
T3 construct: purchased Millipore
T3 sequence (Q13188 1-491): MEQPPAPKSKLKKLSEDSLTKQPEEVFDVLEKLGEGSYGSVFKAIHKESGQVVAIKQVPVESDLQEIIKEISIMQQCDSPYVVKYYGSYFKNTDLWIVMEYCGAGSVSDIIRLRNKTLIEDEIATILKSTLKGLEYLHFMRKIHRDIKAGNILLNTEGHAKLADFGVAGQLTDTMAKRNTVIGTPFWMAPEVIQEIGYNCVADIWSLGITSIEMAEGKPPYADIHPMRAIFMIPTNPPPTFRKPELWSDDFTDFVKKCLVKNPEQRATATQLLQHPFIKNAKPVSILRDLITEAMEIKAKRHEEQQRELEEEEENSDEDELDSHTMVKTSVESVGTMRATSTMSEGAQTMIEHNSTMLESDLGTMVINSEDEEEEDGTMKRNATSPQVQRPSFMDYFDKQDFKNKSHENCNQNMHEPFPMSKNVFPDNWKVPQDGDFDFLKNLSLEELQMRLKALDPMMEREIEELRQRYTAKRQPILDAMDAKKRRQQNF
Method in brief: as §1

[6] = molecular target: T4, Hck(h) activated (Homo sapiens, UniProt P08631)
T4 construct: purchased Millipore
Method in brief: as §1

[7] = molecular target: ROCK-II(h) (Homo sapiens, UniProt O75116)
Method in brief: as §1

[8] = molecular target: T5, MST3(h) (Homo sapiens, UniProt Q9Y6E0)
T5 construct: purchased Millipore
Method in brief: as §1

[9] = molecular target: cKit(V560G)(h) (Homo sapiens, UniProt P10721, V560G)
Method in brief: as §1

T4 sequence (P08631 whole entry): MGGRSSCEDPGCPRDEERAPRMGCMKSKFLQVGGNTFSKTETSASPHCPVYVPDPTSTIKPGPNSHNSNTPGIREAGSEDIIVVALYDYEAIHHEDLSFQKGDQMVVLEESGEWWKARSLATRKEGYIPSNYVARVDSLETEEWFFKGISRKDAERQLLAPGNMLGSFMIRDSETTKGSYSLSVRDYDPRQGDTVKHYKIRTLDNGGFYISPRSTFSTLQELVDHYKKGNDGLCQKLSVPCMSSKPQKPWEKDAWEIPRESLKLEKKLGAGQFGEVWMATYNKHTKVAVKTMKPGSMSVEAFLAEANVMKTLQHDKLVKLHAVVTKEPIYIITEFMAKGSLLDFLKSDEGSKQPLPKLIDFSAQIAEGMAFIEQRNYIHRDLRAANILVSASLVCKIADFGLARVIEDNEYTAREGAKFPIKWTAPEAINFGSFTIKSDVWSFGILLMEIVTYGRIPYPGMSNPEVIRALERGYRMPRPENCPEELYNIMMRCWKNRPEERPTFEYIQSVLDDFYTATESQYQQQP
Chain of PAK5(h) (Q9P286 whole entry): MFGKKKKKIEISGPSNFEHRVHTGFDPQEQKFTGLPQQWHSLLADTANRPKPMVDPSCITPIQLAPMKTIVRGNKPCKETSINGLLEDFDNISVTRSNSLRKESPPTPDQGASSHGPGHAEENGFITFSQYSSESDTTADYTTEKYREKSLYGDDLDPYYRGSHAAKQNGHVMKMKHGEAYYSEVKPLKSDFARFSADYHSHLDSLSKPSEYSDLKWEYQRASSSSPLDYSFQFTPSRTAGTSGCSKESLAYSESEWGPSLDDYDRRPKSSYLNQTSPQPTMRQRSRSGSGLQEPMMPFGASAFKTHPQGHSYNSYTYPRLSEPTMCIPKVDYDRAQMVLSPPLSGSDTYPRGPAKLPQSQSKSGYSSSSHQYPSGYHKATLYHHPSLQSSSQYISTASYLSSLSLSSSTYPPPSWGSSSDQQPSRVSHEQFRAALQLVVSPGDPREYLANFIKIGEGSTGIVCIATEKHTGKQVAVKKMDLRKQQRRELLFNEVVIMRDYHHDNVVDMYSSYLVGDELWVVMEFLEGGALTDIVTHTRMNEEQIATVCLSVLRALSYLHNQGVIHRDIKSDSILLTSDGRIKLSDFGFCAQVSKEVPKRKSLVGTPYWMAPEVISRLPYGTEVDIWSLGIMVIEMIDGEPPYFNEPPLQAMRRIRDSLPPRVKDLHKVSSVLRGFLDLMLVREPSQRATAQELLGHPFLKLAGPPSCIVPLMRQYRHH
T5 sequence (Q9Y6E0 whole entry): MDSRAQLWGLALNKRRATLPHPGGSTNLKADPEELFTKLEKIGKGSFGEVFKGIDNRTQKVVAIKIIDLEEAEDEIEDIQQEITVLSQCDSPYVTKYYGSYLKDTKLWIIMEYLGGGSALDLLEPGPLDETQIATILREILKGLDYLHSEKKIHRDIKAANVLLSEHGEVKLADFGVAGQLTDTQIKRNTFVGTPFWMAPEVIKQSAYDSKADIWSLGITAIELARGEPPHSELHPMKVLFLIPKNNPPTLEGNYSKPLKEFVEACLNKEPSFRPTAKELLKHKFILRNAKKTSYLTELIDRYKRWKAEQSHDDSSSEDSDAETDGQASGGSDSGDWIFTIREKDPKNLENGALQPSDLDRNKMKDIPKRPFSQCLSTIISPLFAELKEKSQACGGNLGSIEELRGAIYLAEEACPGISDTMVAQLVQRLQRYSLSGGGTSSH
Chain of ROCK-II(h) (O75116 whole entry): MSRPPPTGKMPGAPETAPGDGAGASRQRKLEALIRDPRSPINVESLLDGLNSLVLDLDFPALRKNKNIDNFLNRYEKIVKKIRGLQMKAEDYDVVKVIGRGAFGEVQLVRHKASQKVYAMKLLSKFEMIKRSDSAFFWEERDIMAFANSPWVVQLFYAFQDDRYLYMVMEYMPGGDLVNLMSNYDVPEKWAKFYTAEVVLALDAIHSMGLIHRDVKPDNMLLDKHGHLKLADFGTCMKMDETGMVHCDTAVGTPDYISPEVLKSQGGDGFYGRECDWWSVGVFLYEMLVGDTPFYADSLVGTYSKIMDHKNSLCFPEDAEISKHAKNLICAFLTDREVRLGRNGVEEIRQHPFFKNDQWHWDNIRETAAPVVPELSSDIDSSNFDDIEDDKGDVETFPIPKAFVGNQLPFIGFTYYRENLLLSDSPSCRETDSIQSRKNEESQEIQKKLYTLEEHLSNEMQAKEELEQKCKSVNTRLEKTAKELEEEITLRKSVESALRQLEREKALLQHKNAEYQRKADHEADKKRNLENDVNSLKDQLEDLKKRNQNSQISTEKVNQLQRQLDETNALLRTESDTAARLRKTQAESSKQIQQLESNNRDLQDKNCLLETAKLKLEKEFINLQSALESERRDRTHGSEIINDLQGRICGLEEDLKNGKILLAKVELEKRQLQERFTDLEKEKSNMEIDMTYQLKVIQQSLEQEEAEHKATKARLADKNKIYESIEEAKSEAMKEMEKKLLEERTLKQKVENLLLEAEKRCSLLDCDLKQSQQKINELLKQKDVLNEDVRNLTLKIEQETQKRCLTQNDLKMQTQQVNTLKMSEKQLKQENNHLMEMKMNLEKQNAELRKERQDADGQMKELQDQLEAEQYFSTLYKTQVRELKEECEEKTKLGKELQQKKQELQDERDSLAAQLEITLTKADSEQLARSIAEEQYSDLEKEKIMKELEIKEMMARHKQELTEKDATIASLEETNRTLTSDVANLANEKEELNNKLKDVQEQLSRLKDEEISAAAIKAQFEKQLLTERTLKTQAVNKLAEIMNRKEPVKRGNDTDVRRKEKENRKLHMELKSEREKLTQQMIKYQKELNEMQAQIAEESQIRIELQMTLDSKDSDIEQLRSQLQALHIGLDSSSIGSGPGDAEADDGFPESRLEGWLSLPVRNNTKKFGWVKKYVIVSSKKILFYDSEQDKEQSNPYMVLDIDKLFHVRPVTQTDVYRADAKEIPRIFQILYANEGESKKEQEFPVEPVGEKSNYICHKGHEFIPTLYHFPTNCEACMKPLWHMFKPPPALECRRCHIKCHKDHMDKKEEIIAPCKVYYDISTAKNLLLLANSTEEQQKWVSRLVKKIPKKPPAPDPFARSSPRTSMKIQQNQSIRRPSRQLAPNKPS

Sequence | % activity [1] [%] | % activity [2] [%] | % activity [3] [%] | % activity [4] [%] | % activity [5] [%] | % activity [6] [%] | % activity [7] [%] | % activity [8] [%] | % activity [9] [%]
FAKLAARLYRKALARQLGVAA [MMI-0300] | 110 | 48 | 48 | 126 | 19 | 82 | 74 | 45 | –
HRRIKAWLKKIKALARQLGVAA (Mammal) [MMI-0500] | 125 | 10 | 25 | 194 | 2 | 67 | 2 | 4 | 198
KAFAKLAARLYRKALARQLGVAA [MMI-0400] | – | 37 | 36 | 143 | 11 | 81 | 77 | 36 | 124
YARAAARQARAKALARQLGVAA [MMI-0100] | – | 87 | 127 | 79 | 98 | – | – | – | 94
YARAAARQARAKALNRQLGVA (Mammal) [MMI-0200] | 100 | 98 | 71 | – | – | 100 | 85 | 95 | –
